The values below are quoted from earlier work in PMC3931982.

Usually Kd stands for a measure of binding affinity in units of concentration.

The data set addresses RXR LBD (Homo sapiens) (UniProt P19793).

In the case of RXR LBD (from UniProt P19793), the Kd was 4 nM.
